Laboratory results as given in publication PMC5700101.

B1: Luc-KD (KD–IDL of Polo, amino acids 1–349, N-terminally fused to RLucII), KD^WT [Drosophila] / PBD–GFP (PBD of Polo, amino acids 350–576, C-terminally fused to GFP10) [Drosophila] (parent)
chain 1: MAAKPEDKSTDIPDRLVDINQRKTYKRMRFFGKGGFAKCYEIIDVETDDVFAGKIVSKKLMIKHNQKEKTAQEITIHRSLNHPNIVKFHNYFEDSQNIYIVLELCKKRSMMELHKRRKSITEFECRYYIYQIIQGVKYLHDNRIIHRDLKLGNLFLNDLLHVKIGDFGLATRIEYEGERKKTLCGTPNYIAPEILTKKGHSFEVDIWSIGCVMYTLLVGQPPFETKTLKDTYSKIKKCEYRVPSYLRKPAADMVIAMLQPNPESRPAIGQLLNFEFLKGSKVPMFLPSSCLTMAPRIGSNDTIEDSMHRKPLMEMNGIRPDDTRLESTFLKANLHDAITASAQVCRHSE
chain 2: DYRSDIESLYQQLTNLINGKPRILQGNLGDENTDPAAQPLFWISKWVDYSDKYGFGYQLCDEGIGVMFNDTTKLILLPNQINVHFIDKDGKETYMTTTDYCKSLDKKMKLLSYFKRYMIEHLVKAGANNVNIESDQISRMPHLHSWFRTTCAVVMHLTNGSVQLNFSDHMKLILCPRMSAITYMDQEKNFRTYRFSTIVENGVSKDLYQKIRYAQEKLRKMLEKMFT

Variants of: B1
Experiment: BRET
Details: with PBD–GFP (PBD of Polo, amino acids 350–576, C-terminally fused to GFP10) [Drosophila]; live HEK293T cells; fixed amount of Luc-KD vector, increasing PBD–GFP vector; Map205 fragment co-transfected; p-value 0.0374; parent: 0.197

Row | screen value | Variant
1 | 0.412 GFP/Luc | chain 1 T182D

Same assay, conditions: with PBD–GFP (PBD of Polo, amino acids 350–576, C-terminally fused to GFP10) [Drosophila]; live HEK293T cells; fixed amount of Luc-KD vector, increasing PBD–GFP vector; Map205 fragment co-transfected; p-value 0.4037; parent: 0.197

Row | screen value | Variant
2 | 0.148 GFP/Luc | chain 1 T182A
